Laboratory results as given in patent publication US20230312724A1 (KADMON, published 2023).
Substitutions are numbered along the chain they refer to. Where two headings read alike, the source gives them in different places.

T1: human B7-H4-his (human, UniProt Q7Z7D3 25-259)
T1 construct: also called hB7-H4-his; hB7-H4 his; not shown: his tag
T1 sequence: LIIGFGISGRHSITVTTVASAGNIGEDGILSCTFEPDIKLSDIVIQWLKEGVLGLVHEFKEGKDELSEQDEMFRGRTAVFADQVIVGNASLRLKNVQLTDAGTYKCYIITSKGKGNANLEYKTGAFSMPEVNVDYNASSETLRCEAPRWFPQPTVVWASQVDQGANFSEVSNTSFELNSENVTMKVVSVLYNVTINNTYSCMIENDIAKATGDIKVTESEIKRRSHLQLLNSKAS

T2: hB7-H4 (soluble human B7-H4, construct not named) (human, UniProt Q7Z7D3 25-259, limits assumed)
T2 construct: also called soluble hB7-H4
T2 sequence: T1 sequence

T3: human B7-H4 expressed on cells (human, UniProt Q7Z7D3 25-282)
T3 construct: Transfected CHO cells or tumor cell lines that carry hB7-H4; also called cellular hB7-H4
T3 sequence: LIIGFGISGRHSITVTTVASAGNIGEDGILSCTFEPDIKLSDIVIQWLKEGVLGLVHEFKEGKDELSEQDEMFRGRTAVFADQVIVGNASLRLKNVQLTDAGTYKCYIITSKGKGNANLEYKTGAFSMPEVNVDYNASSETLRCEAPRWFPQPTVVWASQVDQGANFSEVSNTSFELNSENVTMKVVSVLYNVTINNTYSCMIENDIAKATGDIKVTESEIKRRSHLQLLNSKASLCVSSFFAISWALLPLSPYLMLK

T4: mouse B7-H4-his (mouse, UniProt Q7TSP5 25-257)
T4 construct: also called mB7-H4-his; mB7-H4-His; not shown: his tag
T4 sequence: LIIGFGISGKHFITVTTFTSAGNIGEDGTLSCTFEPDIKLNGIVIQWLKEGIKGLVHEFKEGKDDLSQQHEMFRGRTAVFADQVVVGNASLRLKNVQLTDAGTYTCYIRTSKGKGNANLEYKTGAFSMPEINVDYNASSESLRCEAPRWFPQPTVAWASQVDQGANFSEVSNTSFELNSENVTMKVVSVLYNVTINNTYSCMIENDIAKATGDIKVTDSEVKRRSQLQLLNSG

T5: mB7-H4 (soluble mouse B7-H4, construct not named) (mouse, UniProt Q7TSP5 25-257, limits assumed)
T5 sequence: T4 sequence

T6: mouse B7-H4 expressed on cells (mouse, UniProt Q7TSP5 25-257)
T6 construct: also called cellular mB7-H4; mB7-H4/CT26
T6 sequence: T4 sequence

B1: 1D3/1D3 (antibody, human IgG1, V domains shown)
VH: EVQLLESGGGLVQPGGSLRLSCAASGFTFNTHAMHWVRQAPGKGLEWVSAISGSGGSTYYADSVKGRFTISRDISKNTLYLQMNSLRAEDTAVYYCARLLGRFGEYGMDVWGQGTTVTVSS
VL: DIQMTQSPSSLSASVGDRVTITCRASRSIYTWLAWYQQKPGKAPKLLIYDASTLQSGVPSRFSGSGSGTDFTLTISSLQPEDFATYYCQQSYSTPYTFGGGTKVEIK
B2: 1D3/47B2 (antibody, human IgG1, V domains shown)
VH: B1 VH
VL: B1 VL with R27Q, S28T, I29V, S52T, T53N, Q55A, S56T, P95S, Y96W
notes: 1D3 VH with 47B2 VL

Experiments:
human B7-H4-Fc [1] = molecular target: T7, human B7-H4-Fc (human); experiment: SPR (Biacore)
T7 construct: also called hB7-H4-Fc; hB7-H4 Fc

human B7-H4-his = molecular target: T1, human B7-H4-his; experiment: SPR (Biacore)
[2] = molecular target: T2, hB7-H4 (soluble human B7-H4, construct …); experiment: ELISA, hB7-H4
Method in brief: (§1)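 Coat: B7-H4-Fc or his-tagged protein, ~1-2 μg/ml, 4° C overnight. Block 3% PBS+milk; serial antibody dilutions 1-1.5 h RT; wash PBS-T (0.05%); HRP anti-hFab; TMB, 1N H₂SO₄ stop; OD450. EC50 from dose-response fit.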

[3] = molecular target: T2, hB7-H4 (soluble human B7-H4, construct …); experiment: SPR (Biacore)
Method in brief: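 Kinetic constants came from a 1:1 Langmuir fit of binding at 25 °C in HBS-EP, pH 7.4. Analyte (100 nM to 0.1 nM) flowed for 180 s, then dissociated for 1000 or 1200 s, over amine-coupled human B7-H4-Fc, human B7-H4-his or mouse B7-H4-Fc surfaces at 50-100 RU.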

[4] = molecular target: T3, human B7-H4 expressed on cells; experiment: flow cytometry, SK-BR-3 cells
Method in brief: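 Cell-surface binding read by flow cytometry: cells (1×10⁶/ml, cold FACS buffer) + serial dilutions of antibody or fusion protein, 1 h, 4 °C; 3 washes; secondary Ab 1:200, 30 min, 4 °C, dark.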

mouse B7-H4-Fc [5] = molecular target: T8, mouse B7-H4-Fc (mouse; human); experiment: ELISA, coated mB7-H4-Fc
T8 construct: also called mB7-H4-Fc; mB7-H4-hFc
Description: (§2) ELISA experiments were performed to determine binding to hB7-H4-Fc (FIG. 3A), hB7-H4-his (FIG. 3B), mB7-H4-Fc (FIG. 3C), and hB7-H4 IgV domain (FIG. 3D). Flow cytometry experiments were performed to determine binding to CHO cells expressing hB7-H4 (FIG. 3E) or mB7-H4 (FIG. 3F).
(§3) About 1-2 μg/ml of human or mouse B7-H4-Fc (or his-tagged) was immobilized on ELISA plates (Immuno 2HB, Thermo scientific, cat #3455) at 4° C. overnight. After blocking the plates with 3% PBS+milk, serial diluted antibodies were added to the blocked plates and incubated at RT for 1-1.5 h. After washing the plates with PBS-T (0.05%), horse radish peroxidase (HRP)-conjugated antibody targeting the hFab was added to the plate. Signals were developed by adding 3,3′,5,5′-Tetramethylbenzidine (TMB (followed 1N of H₂SO₄ to stop the reaction. The OD at 450 nm was read by ELISA plate reader (Infinite M1000 from TECAN). GraphPad from Prism was used to plot OD450 vs. antibody concentration curve and to calculate the EC50 values.

human B7-H4-Fc [6] = molecular target: T7, human B7-H4-Fc; experiment: ELISA, coated hB7-H4-Fc
Description: (§4) ELISA experiments were performed to determine binding to hB7-H4-Fc (FIG. 4A), hB7-H4-his (FIG. 4B), hB7-H4 IgV domain (FIG. 4C), and mB7-H4 IgV domain (FIG. 4D). Flow cytrometry experiments were performed to determine binding to CHO cells expressing hB7-H4 (FIG. 4E) or mB7-H4 (FIG. 4F). […] A cross-reactive IgV binding antibody was used as a control.
as §3

mouse B7-H4-his = molecular target: T4, mouse B7-H4-his; experiment: ELISA, coated mB7-H4-his
Description: as §3

[7] = molecular target: T5, mB7-H4 (soluble mouse B7-H4, construct …); experiment: summary of ELISA and flow cytometry
[8] = molecular target: T9, IgV domain of human B7-H4-Fc (human); experiment: ELISA, coated hB7-H4 IgV domain
T9 construct: also called hB7-H4 IgV domain
Description: as §4, §3

[9] = molecular target: T10, IgV domain of mouse B7-H4-Fc (mouse; human); experiment: ELISA, coated mB7-H4 IgV domain
T10 construct: also called mB7-H4 IgV domain
Description: as §4, §3

[10] = molecular target: T6, mouse B7-H4 expressed on cells; experiment: flow cytometry, CHO cells expressing mB7-H4
Description: as §2
Cells were harvested, washed once, and then re-suspended to the concentration of 1×10⁶ cells/ml in ice cold FACS Buffer. 25 μl of cell suspension was added to each well of a 96-well round-bottom microliter plate. Serially diluted antibodies or fusion proteins were added to each well and incubated for 1 hour at 4° C. Cells were washed three times by centrifugation at 1500 rpm for 5 minutes, and then stained with secondary antibody (1:200 dilution) for 30 min at 4° C. in the dark. Cells were washed once, re-suspended in 100 μl PBS buffer and then analyzed using Guava Flow Cytometry EasyCyte system.

[11] = molecular target: T11, IgC domain of mouse B7-H4-Fc (mouse; human); experiment: ELISA, coated mB7-H4 IgC domain (title on the sheet: IgC domain of mB7H4)
T11 construct: also called mB7-H4 IgC domain
Description: as §3

[12] = molecular target: T5, mB7-H4 (soluble mouse B7-H4, construct …); experiment: ELISA and SPR (Biacore)
Description: as §3
Surface plasmon resonance experiments were performed using a Biacore T200 instrument equipped with CM5 sensor chips. The system was equilibrated in running buffer HBS-EP pH 7.4. The ligands were immobilized using amine-coupling chemistry. The surfaces of flow cells one through four were activated for 5 min using an amine coupling kit at a flow rate of […]. The ligands (human B7-H4-Fc, human B7-H4-hism and mouse B7-H4-Fc; at a concentration of 5 μg/ml in 10 mM sodium acetate, pH 5.0) were immobilized at a density of 50-100 RU on flow cell 2, 3, 4 respectively. Flow cell 1 was left blank to serve as a reference surface. All flow cell surfaces were blocked with a 5 min injection of 1 M ethanolamine, pH 8.0. To collect kinetic binding data, the respective analyte (diluted in 1×HBS-EP buffer, pH 7.4) was injected over the four flow cells at concentrations of 100 nM to 0.1 nM at a flow rate of […] and at a temperature of 25° C. The protein complex was allowed to associate and dissociate for 180 seconds and 1000 or 1200 seconds, respectively. The surfaces were regenerated with a 30 second injection of 1.5 M NaCl/0.05 M NaOH. The data were fit to a simple 1:1 interaction model using the Langmuir fit option available within the Biaevaluaton software

[13] = molecular target: T10, IgV domain of mouse B7-H4-Fc; experiment: ELISA, coated mB7-H4 IgV domain; remark: listed apart in the source
Method in brief: as §1

[14] = molecular target: T6, mouse B7-H4 expressed on cells; experiment: flow cytometry, CHO cells expressing mB7-H4; remark: listed apart in the source
mouse B7-H4-Fc [15] = molecular target: T8, mouse B7-H4-Fc; experiment: ELISA, coated mB7-H4-Fc (title on the sheet: Binding to mB7-H7-Fc)
Description: as §3

[16] = molecular target: T12, IgC domain of human B7-H4-Fc (human); experiment: ELISA, coated hB7-H4 IgC domain (title on the sheet: IgC domain of hB7H4)
T12 construct: also called hB7-H4 IgC domain
Description: as §3

T11 sequence (chain, as listed by the source): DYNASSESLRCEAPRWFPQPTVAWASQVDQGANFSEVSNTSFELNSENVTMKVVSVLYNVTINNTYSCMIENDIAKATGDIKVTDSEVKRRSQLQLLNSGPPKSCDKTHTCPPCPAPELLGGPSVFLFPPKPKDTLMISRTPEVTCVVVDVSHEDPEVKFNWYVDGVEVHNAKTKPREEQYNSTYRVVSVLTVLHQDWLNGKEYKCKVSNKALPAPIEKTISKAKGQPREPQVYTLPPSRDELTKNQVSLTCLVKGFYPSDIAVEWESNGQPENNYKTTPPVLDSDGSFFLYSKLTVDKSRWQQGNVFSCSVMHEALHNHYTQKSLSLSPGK
T7 sequence (chain, as listed by the source): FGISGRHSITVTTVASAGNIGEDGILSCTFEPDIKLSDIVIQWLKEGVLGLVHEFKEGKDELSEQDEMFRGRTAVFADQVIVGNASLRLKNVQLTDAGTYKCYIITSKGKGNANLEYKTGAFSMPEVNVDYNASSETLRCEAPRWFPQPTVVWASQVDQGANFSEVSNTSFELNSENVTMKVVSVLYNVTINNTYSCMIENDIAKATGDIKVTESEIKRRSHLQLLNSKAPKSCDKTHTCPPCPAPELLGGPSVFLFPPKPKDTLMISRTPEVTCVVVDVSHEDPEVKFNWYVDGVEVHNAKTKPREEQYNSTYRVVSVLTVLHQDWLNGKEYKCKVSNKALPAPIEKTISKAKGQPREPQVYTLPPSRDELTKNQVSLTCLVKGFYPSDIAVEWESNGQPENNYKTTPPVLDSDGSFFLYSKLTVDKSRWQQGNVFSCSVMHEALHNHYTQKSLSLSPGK
T8 sequence (chain, as listed by the source): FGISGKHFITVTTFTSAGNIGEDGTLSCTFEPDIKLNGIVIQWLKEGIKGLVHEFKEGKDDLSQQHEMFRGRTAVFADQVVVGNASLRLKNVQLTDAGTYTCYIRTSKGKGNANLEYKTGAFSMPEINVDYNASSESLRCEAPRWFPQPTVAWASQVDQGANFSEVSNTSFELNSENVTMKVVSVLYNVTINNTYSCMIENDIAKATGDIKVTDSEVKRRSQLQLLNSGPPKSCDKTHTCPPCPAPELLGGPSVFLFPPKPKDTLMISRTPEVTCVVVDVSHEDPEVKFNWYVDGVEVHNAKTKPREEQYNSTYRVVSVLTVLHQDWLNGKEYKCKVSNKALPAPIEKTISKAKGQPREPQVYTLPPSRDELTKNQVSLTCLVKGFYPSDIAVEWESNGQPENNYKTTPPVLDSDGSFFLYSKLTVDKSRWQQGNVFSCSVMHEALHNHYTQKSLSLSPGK
T10 sequence (chain, as listed by the source): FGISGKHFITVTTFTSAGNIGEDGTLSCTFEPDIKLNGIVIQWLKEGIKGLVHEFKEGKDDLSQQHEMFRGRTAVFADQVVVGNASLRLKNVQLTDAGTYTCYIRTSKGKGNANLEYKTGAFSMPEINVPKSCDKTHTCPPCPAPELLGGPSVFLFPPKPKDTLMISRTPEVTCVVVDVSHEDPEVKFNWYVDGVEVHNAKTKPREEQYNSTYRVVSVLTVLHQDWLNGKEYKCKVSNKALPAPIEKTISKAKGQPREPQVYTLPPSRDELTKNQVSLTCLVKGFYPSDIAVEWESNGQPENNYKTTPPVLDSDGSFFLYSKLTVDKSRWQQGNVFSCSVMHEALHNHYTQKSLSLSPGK
T12 sequence (chain, as listed by the source): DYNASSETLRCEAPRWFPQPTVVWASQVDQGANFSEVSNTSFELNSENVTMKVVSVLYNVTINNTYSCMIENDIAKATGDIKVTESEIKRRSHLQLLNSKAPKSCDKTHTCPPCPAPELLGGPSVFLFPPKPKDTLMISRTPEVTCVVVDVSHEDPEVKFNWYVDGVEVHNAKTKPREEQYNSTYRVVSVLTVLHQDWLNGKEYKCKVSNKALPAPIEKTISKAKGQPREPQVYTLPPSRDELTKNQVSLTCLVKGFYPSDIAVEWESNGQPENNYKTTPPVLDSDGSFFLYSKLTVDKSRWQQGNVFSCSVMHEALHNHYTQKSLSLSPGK
T9 sequence (chain, as listed by the source): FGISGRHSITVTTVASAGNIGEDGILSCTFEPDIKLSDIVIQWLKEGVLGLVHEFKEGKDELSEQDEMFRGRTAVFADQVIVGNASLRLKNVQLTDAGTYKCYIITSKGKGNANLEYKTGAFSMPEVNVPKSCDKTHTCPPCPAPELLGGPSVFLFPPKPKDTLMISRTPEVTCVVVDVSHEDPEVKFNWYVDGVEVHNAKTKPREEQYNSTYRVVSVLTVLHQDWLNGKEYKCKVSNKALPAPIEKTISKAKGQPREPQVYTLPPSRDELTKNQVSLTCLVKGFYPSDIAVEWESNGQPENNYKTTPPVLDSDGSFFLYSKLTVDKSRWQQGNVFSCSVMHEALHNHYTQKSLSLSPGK

| Binder | Kd (human B7-H4-Fc [1]) [nM] | Kd (human B7-H4-his) [nM] | EC50 [2] [nM] | Kd [3] [nM] | EC50 [4] [nM] | binding result (mouse B7-H4-Fc [5]) | EC50 (read off the curve) (human B7-H4-Fc [6]) [ng/mL] | binding result (mouse B7-H4-his) | binding result [7] | EC50 (read off the curve) [8] [ng/mL] | binding result [9] | binding result [10] | binding result [11] | binding result [12] | binding result [13] | binding result [14] | binding result (mouse B7-H4-Fc [15]) | binding result [16] |
| --- | --- | --- | --- | --- | --- | --- | --- | --- | --- | --- | --- | --- | --- | --- | --- | --- | --- | --- |
| B1 | 0.805 | 0.551 | 0.044 | 0.775 | 18.6 | no binding (tested: axis value -8 (log scale labelled nM)) | ~7 | no binding (tested: axis value -8 (labelled log nM)) | no binding | ~10 | no binding | no binding (tested: axis value -7 (log scale labelled nM)) | no binding (tested: axis value -8 (labelled log nM)) |  |  |  |  |  |
| B2 |  |  | 0.078 | 0.209 | 36 |  |  | no binding (tested: axis value -8 (labelled log nM)) |  |  |  |  | no binding (tested: axis value -8 (labelled log nM)) | no binding | no binding (tested: axis value -8 (labelled log nM)) | no binding (tested: log 2 nM (100 nM)) | no binding (tested: axis value -8 (log scale labelled nM)) | no binding (tested: axis value -8 (labelled log nM)) |
